Assay [1] addresses Trastuzumab (glycan-intact) (Homo sapiens).

Consider 2 substances from patent publication US20210363177A1.

“Activa TI microbial transglutaminase (Ajinomoto) (enzyme)”: in assay [1], the % DOL 2 (fraction of antibody fully modified with 3-APA, LC-MS) is 81%.

For the substance “recombinant Microbial transglutaminase from Zedira (catalog number T001) (enzyme)”, the % DOL 2 (fraction of antibody fully modified with 3-APA, LC-MS) came out at 69% in the assay with Panitumumab and 100% in the assay with Pertuzumab.
